Experimental data published in the supplement of paper PMC12764529.
± gives the half width of the 95% confidence interval.

Legend:
[1] = folding stability dG unfold from trypsin proteolysis; higher = more stable
Method in brief: (§1)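 K50 was inferred by Bayesian fitting of sequencing counts obtained after protease digestion of designed mini-proteins. Unfolding free energy was derived by comparison with a sequence-predicted unfolded-state K50 and a shared folded-state K50, for each protease or both combined. The mini-proteins were under 80 residues, had no cysteine, were carried in a PA-tagged cDNA display construct, and were kept only if AlphaFold2 dimer inter-PAE exceeded 15.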

[2] = folding stability dG unfold from chymotrypsin proteolysis; higher = more stable
Method in brief: as §1

[3] = folding stability dG unfold (combined trypsin and chymotrypsin); higher = more stable
Method in brief: as §1

## SAGGSAVILIPIPPDDPNFWEMIKDFQEEGKPVIIRNPEGEWMVFKPNGPVKPVDSPEQLLEAGITSAGGSA [r15_94_TrROS]
[1]
  folding stability dG unfold: 1.03 ± 0.074 kcal/mol
[2]
  folding stability dG unfold: 0.994 ± 0.16 kcal/mol
[3]
  folding stability dG unfold: 1.04 ± 0.18 kcal/mol

## SAGGSAVPTVRATFRYPDGLVAELEVPVLPDGTPRVVLRVGGVEREVSLEELARLPPEFELVSVDPSAGGSA [r2_431_TrMRF]
[1]
  folding stability dG unfold: 0.517 ± 0.073 kcal/mol
[2]
  folding stability dG unfold: 0.996 ± 0.087 kcal/mol
[3]
  folding stability dG unfold: 0.826 ± 0.072 kcal/mol

## SAGGSAVTVVTVELTSPGSTHTITIPASEVEGLSLEEIEARLKALPEVSEITLTRSELPPLNPSLASAGGSA [r2_282_JUSTAS]
[1]
  folding stability dG unfold: 0.788 ± 0.042 kcal/mol
[2]
  folding stability dG unfold: 0.752 ± 0.012 kcal/mol
[3]
  folding stability dG unfold: 0.802 ± 0.046 kcal/mol

## SAGGSAWEFVKEIAKELQEKHPGYQVNVDVEPQRNPENDRRYIRIWIHVQDKNGEIRRTWEIMIPFSAGGSA [r15_1048_TrROS]
[1]
  folding stability dG unfold: 3.22 ± 0.053 kcal/mol
[2]
  folding stability dG unfold: 3.461 ± 0.018 kcal/mol
[3]
  folding stability dG unfold: 3.44 ± 0.12 kcal/mol

## SAGGSAWMTLEEFIKEAAKNFPPGREKEIWIRHPGYVFKIDIRVTGPGQVKIKIDKIVPFPDGEPISAGGSA [r15_150_TrROS]
[1]
  folding stability dG unfold: 2.12 ± 0.067 kcal/mol
[2]
  folding stability dG unfold: 2.88 ± 0.046 kcal/mol
[3]
  folding stability dG unfold: 2.55 ± 0.11 kcal/mol

## SAGGSDKLYIRNPDHTIEIDEVKEPPDGEKYVRIRHEPPDGKEKEHEFPPDELADKFGLPPDNIEISAGGSA [r2_262_TrROS]
[1]
  folding stability dG unfold: 0.32 ± 0.35 kcal/mol
[2]
  folding stability dG unfold: -0.217 ± 0.79 kcal/mol
[3]
  folding stability dG unfold: -0.101 ± 0.56 kcal/mol

## SAGGSDNKPFRIEPTGVDSVEANPDGMVEIEWRFRLPNGYVLTWRETINPKNGKPSIEPTLVPPGESAGGSA [r2_321_TrROS]
[1]
  folding stability dG unfold: 0.816 ± 0.079 kcal/mol
[2]
  folding stability dG unfold: 0.722 ± 0.18 kcal/mol
[3]
  folding stability dG unfold: 0.902 ± 0.085 kcal/mol

## SAGGSDSLVTLERVEVTELEEFEEDDRPFLVKRTYTIEKVVTTDPKTGKVTTETTVTSKEEVIPPELNSAGG [r13_810_JUSTAS]
[1]
  folding stability dG unfold: 0.807 ± 0.031 kcal/mol
[2]
  folding stability dG unfold: 0.801 ± 0.18 kcal/mol
[3]
  folding stability dG unfold: 0.874 ± 0.084 kcal/mol

## SAGGSDVKTYTFVGIDPETGELVETTFRVTPLVPPVPVSVSVSLTLDVDPDGNLHLSLSVSVELGGSAGGSA [r2_326_TrMRF]
[1]
  folding stability dG unfold: 3.21 ± 0.11 kcal/mol
[2]
  folding stability dG unfold: 4.74 ± 0.081 kcal/mol
[3]
  folding stability dG unfold: 4.37 ± 0.12 kcal/mol

## SAGGSEAEIVSVEFDEETGTISVLVRNSDGSLYRAEIRFERLPDGSLLVTIKVTLPDGKELTFVFPSAGGSA [r2_488_TrROS_Hall]
[1]
  folding stability dG unfold: 3.94 ± 0.11 kcal/mol
[2]
  folding stability dG unfold: 5.77 ± 0.085 kcal/mol
[3]
  folding stability dG unfold: 5.78 ± 0.19 kcal/mol

## SAGGSEGMTVTELVKPPDSDEVLYVATDSAGNTFTLPGSLVKEALENGKTVEAPRPDGTAATLVLRSAGGSA [r2_301_JUSTAS]
[1]
  folding stability dG unfold: 2.25 ± 0.4 kcal/mol
[2]
  folding stability dG unfold: 3.5 ± 0.2 kcal/mol
[3]
  folding stability dG unfold: 3.1 ± 0.34 kcal/mol

## SAGGSEILKKLFPNVKKIEIEVEEVEVKYSEEEKKANPNKKVKVEVKVKVKIKIKIELEFDKNGKLSAGGSA [r2_404_TrROS_Hall]
[1]
  folding stability dG unfold: 3.64 ± 0.19 kcal/mol
[2]
  folding stability dG unfold: 1.92 ± 0.19 kcal/mol
[3]
  folding stability dG unfold: 3.09 ± 0.61 kcal/mol

## SAGGSEIRVEYDPSTGELRVLIVLPDGSVILKTVRVEPIDPGIAPDGSPIGAAVSISVEIVPPGELSAGGSA [r2_195_TrMRF]
[1]
  folding stability dG unfold: 3.23 ± 0.1 kcal/mol
[2]
  folding stability dG unfold: 3.5 ± 0.037 kcal/mol
[3]
  folding stability dG unfold: 3.39 ± 0.087 kcal/mol

## SAGGSEKKVLVLKFRHPENDKPLFSVRIVLEKPPEDSYKAKIELLDLPEDYVLSPEAIKAILEALKSAGGSA [r2_7_TrMRF]
[1]
  folding stability dG unfold: 2.05 ± 0.036 kcal/mol
[2]
  folding stability dG unfold: 2.58 ± 0.11 kcal/mol
[3]
  folding stability dG unfold: 2.3 ± 0.11 kcal/mol

## SAGGSELENMSLEELLARAEELARELAEETGRTVTVTVEVRVRLPDGSTRTFRFTVTLTVLREEDLSAGGSA [r2_157_TrROS_Hall]
[1]
  folding stability dG unfold: 3.93 ± 0.12 kcal/mol
[2]
  folding stability dG unfold: 4.739 ± 0.04 kcal/mol
[3]
  folding stability dG unfold: 4.519 ± 0.041 kcal/mol

## SAGGSETVRVEVEVELENGYRVRVEMEFDLETKEMTMRVEVEPVLELSPEELEKLKKLLEELGIEVSAGGSA [r2_304_TrROS_Hall]
[1]
  folding stability dG unfold: 2.91 ± 0.27 kcal/mol
[2]
  folding stability dG unfold: 3.43 ± 0.11 kcal/mol
[3]
  folding stability dG unfold: 3.12 ± 0.17 kcal/mol

## SAGGSEVKIVKIESVEIEEENGFLRIKVRATLKFYDKETGELVEEKEVELEVTLKNGKKLTFKIKASAGGSA [r2_271_TrROS_Hall]
[1]
  folding stability dG unfold: 3 ± 0.23 kcal/mol
[2]
  folding stability dG unfold: 3.12 ± 0.086 kcal/mol
[3]
  folding stability dG unfold: 3.12 ± 0.58 kcal/mol

## SAGGSFGIEIEFHGNGFVIEMFNPETDTINTMRFKFDPDGQFTEMEMETIPIPPPPPPEKDENGKESAGGSA [r2_375_TrROS]
[1]
  folding stability dG unfold: 2.27 ± 0.16 kcal/mol
[2]
  folding stability dG unfold: 3.16 ± 0.12 kcal/mol
[3]
  folding stability dG unfold: 2.94 ± 0.19 kcal/mol

## SAGGSFIKITTKLPNRKIEIPIPDAEIEVEGNTVTITFPPGNAEEVKKAVLEASDEVEITEVKIIDESAGGS [r8_490_JUSTAS]
[1]
  folding stability dG unfold: -0.107 ± 0.04 kcal/mol
[2]
  folding stability dG unfold: 0.871 ± 0.026 kcal/mol
[3]
  folding stability dG unfold: 0.557 ± 0.087 kcal/mol

## SAGGSFLVPTSSMEEAEEIKNAVLAGEPVTVTPPDGVPVTVKAKSVEVDPETGKVRIIDPSGEKLALSAGGS [r16_254_JUSTAS]
[1]
  folding stability dG unfold: 0.201 ± 0.14 kcal/mol
[2]
  folding stability dG unfold: 0.414 ± 0.095 kcal/mol
[3]
  folding stability dG unfold: 0.379 ± 0.1 kcal/mol

## SAGGSFWVFVIEISVKFEQYGDPDGNWKFEIEKVDVKITEIIPIPPEMMDKLREAKAEGMEPEEILSAGGSA [r2_327_TrROS]
[1]
  folding stability dG unfold: 1.65 ± 0.15 kcal/mol
[2]
  folding stability dG unfold: 3.49 ± 0.11 kcal/mol
[3]
  folding stability dG unfold: 3.09 ± 0.39 kcal/mol

## SAGGSGDPNAAPVVVKVTIDITRPTADDSYVTSPVELTLLESEVDEFLAELEKEPDLELKVEVTLESAGGSA [r2_270_JUSTAS]
[1]
  folding stability dG unfold: 0.829 ± 0.063 kcal/mol
[2]
  folding stability dG unfold: 1.25 ± 0.026 kcal/mol
[3]
  folding stability dG unfold: 1.07 ± 0.11 kcal/mol

## SAGGSGKKVKIKINIVVVFPPGDPDLAKEIAKWFARTIARELQAQGFEDIKDIEIRVHVIPPNQPGFSAGGS [r16_289_TrROS]
[1]
  folding stability dG unfold: 3.11 ± 0.094 kcal/mol
[2]
  folding stability dG unfold: 3.604 ± 0.035 kcal/mol
[3]
  folding stability dG unfold: 3.44 ± 0.12 kcal/mol

## SAGGSGKVIEIPIELPEDKTITLRLDPETGKAVVEAEENVPLEKVIEAAKKIFEENGFELNGLDISSAGGSA [r2_497_TrMRF]
[1]
  folding stability dG unfold: 0.788 ± 0.032 kcal/mol
[2]
  folding stability dG unfold: 0.725 ± 0.092 kcal/mol
[3]
  folding stability dG unfold: 0.782 ± 0.12 kcal/mol

## SAGGSGKVIGFSFEVETPEEAEGLFKENRPDLDVKILEVKPEEGYVRLVAVDPDGKPHVFVVPIVGSAGGSA [r2_201_TrMRF]
[1]
  folding stability dG unfold: 0.743 ± 0.055 kcal/mol
[2]
  folding stability dG unfold: 1.34 ± 0.1 kcal/mol
[3]
  folding stability dG unfold: 1.11 ± 0.091 kcal/mol

## SAGGSGMEKYTVTIDLKFYTPETGKTYTKTVTLTTTSIEEAIKAITEKLTPPDMKIEITSITVTPSSAGGSA [r2_320_JUSTAS]
[1]
  folding stability dG unfold: 4.34 ± 0.25 kcal/mol
[2]
  folding stability dG unfold: 4.62 ± 0.11 kcal/mol
[3]
  folding stability dG unfold: 4.62 ± 0.13 kcal/mol

## SAGGSGMIPVTVDFPPDVSEEEIKAYVEELEKKGYKVLKVEITTEKDAKGNTLRTVTVVLAPPSLLSAGGSA [r2_442_JUSTAS]
[1]
  folding stability dG unfold: 3.14 ± 0.048 kcal/mol
[2]
  folding stability dG unfold: 3.143 ± 0.02 kcal/mol
[3]
  folding stability dG unfold: 3.15 ± 0.048 kcal/mol

## SAGGSGMTVEVSVDPSTGTIRIKIKYGDKEYEVTAPVTRLPDGTYAVELKISAPNGPLLETKEITLPLSAGG [r13_59_JUSTAS]
[1]
  folding stability dG unfold: 2.46 ± 0.086 kcal/mol
[2]
  folding stability dG unfold: 1.76 ± 0.024 kcal/mol
[3]
  folding stability dG unfold: 2.06 ± 0.087 kcal/mol

## SAGGSGMVRQEHEYRGPNGWHMRSEMYYSPENGMMNMEMEWVPVIKLPEDDPAKLKKLLAKEGIPISAGGSA [r2_304_TrROS]
[1]
  folding stability dG unfold: 0.119 ± 0.16 kcal/mol
[2]
  folding stability dG unfold: 1.19 ± 0.099 kcal/mol
[3]
  folding stability dG unfold: 0.803 ± 0.17 kcal/mol

## SAGGSGPLLERALEEIREALAKAKEGEEVEIEVKVTVTGPDGRTREFTFRIRFVVKDGKIVKVEIESAGGSA [r2_173_TrROS_Hall]
[1]
  folding stability dG unfold: 3.74 ± 0.22 kcal/mol
[2]
  folding stability dG unfold: 4.94 ± 0.085 kcal/mol
[3]
  folding stability dG unfold: 4.66 ± 0.14 kcal/mol

## SAGGSGPMTRSITITVTPEIVRDEKGNVTATKYTVTITRSPEVSPEEVEALAAELNAAGIPTTVTPSAGGSA [r2_456_JUSTAS]
[1]
  folding stability dG unfold: 1.23 ± 0.026 kcal/mol
[2]
  folding stability dG unfold: 1.65 ± 0.099 kcal/mol
[3]
  folding stability dG unfold: 1.5 ± 0.083 kcal/mol
